Results as given in PMC2699419 (2007).

Columns and labels:
[1] = target: T1, GM-CSF receptor alpha chain (C57BL/6 form, Gly227; on Ba/F3 cells expressing beta chain) (Mus musculus, UniProt Q00941); assay: flow cytometry cell binding, non-linear regression
T1 chain: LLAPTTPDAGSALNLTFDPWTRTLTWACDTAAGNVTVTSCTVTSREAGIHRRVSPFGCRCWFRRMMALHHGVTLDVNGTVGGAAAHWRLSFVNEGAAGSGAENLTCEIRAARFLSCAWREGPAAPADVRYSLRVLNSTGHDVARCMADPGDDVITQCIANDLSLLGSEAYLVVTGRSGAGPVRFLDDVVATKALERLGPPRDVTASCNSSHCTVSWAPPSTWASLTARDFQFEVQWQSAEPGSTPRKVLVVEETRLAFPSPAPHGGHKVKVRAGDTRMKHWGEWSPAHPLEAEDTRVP

[2] = target: T2, GM-CSF receptor alpha chain (Balb/c form, Asp227; on Ba/F3 cells expressing beta chain) (Mus musculus, UniProt Q00941); assay: flow cytometry cell binding, non-linear regression
T2 chain: T1 chain

B1: GM-CSF-Fc fusion (GM-Fc) (protein)
chain: APTRSPITVTRPWKHVEAIKEALNLLDDMPVTLNEEVEVVSNEFSFKKLTCVQTRLKIFEQGLRGNFTKLKGALNMTASYYQTYCPPTPETDCETQVTTYADFIDSLKTFLTDIPFECKKPGQK
modifications: GM-CSF fused to mutated human IgG1 Fc, Ba/F3 cells co-expressing beta chain
Binder B1 has a Kd [1] of 19.6 nM and a Kd [2] of 15.6 nM.
